Data published in the DeepSol protein solubility set.

Assay: soluble on expression in E. coli; label from the status in PepcDB or PDB records

Sequence | soluble on expression in E. coli
MIACICAITVMAQVQTHDVKGVVFDRRQQPIVGALVTAKGTNISTITDVDGKFLLQEVPLSVKKVVVTSIGMETREVDLNVPVQLTGKRKKVSFVAHAGLSMSKYTIYGSDFKVGYEFGLGIEVRMSKRWAFQPTLQICNHGAEFNAERYGVKYQETWNPVSLDLPMLFILRCPIARKMNLAFSMGPVFSYGFAGKVKASETGKPDEEYDIYSSEYEYDYSGGKHSLLHPFSFGVAYGIGVEYKKWLAGISGKSMCLGQDDEGFEAKEHNLVLTLGVIYRF | not soluble
ITGTSTVGVGRGVLGDQKNINTTYSTYYYLQDNTRGNGIFTYDAKYRTTLPGSLWADADNQFFASYDAPAVDAHYYAGVTYDYYKNVHNRLSYDGNNAAIRSSVHYSQGYNNAFWNGSQMVYGDGDGQTFIPLSGGIDVVAHELTHAVTDYTAGLIYQNESGAINEAISDIFGTLVEFYANKNPDWEIGEDVYTPGISGDSLRSMSDPAKYGDPDHYSKRYTGTQDNGGVHINSGIINKAAYLISQGGTHYGVSVVGIGRDKLGKIFYRALTQYLTPTSNFSQLRAAAVQSATDLYGSTSQEVASVKQAFDAVGVK | soluble
PPGTVDKKMVEKCWKLMDKVVRLCQNPKLALKNSPPYILDLLPDTYQHLRTILSRYEGKMETLGENEYFRVFMENLMKKTKQTISLFKEGKERMYEENSQPRRNLTKLSLIFSHMLAELKGIFPSGLFQGDTFRITKADAAEFWRKAFGEKTIVPWKSFRQALHEVHPISSGLEAMALKSTIDLTCNDYISVFEFDIFTRLFQPWSSLLRNWNSLAVTHPGYMAFLTYDEVKARLQKFIHKPGSYIFRLSCTRLGQWAIGYVTADGNILQTIPHNKPLFQALIDGFREGFYLFPDGRNQNPDLTGLCEPTPQDHIKVTQEQYELYCEMGSTFQLCKICAENDKDVKIEPCGHLMCTSCLTSWQESEGQGCPFCRCEIKGTEPIVVDPF | soluble
MQVSKRKSLCKICGNPAFGNHFGVLSCRACAAFFRRTNVDGETFCPIGNCKIDKHGKFYCKKCRLRICLEAGMDANKFQHDRDLISTSTSESSDSSGSFSFSQRSKVPKSMANFLGRPAFILSCEPDKASKVKTIVDVTFLINQAFDIFGNVDRKRFSSNSNLGRMTKKFEDLQNEKSSNLSTIKVLGLKESMIFWEQDFLRTARWLSHFDEFQELPLSIRMQILKVAWILWGRLDKLVKTANERKNQQLNQNFYMIGKDVGIDIGNFEVDVSWCTNYSKEQLAYYLDCHHDEPFNIIVDAISDLKPSDMELNFMLLELCLAHAGKQHQGDVLMFTDRLLEVVSNELHDYYQSEQISNYSSRITKMMKINNLIRRNLFERLERQAVAKVFNIISVHFSHPDMFCNAGF | not soluble
DGDYIKDAVKEINYFMRDWRVDQVKSMDLRTVDIMAAAHNLMDVNEPYMLLSGYRSPQTNAMLRSRSRGVARNSLHMQGQAADLRLASRSVSQMANAAIACRAGGVGKYYRSNFVHMDCGEVRSWGG | not soluble
GILRTQHTIRDSELNIKNSKMSDSVNARESNVYMAKLAEQAERYDEMAKYMKDVVEARQESEELTVEERNLLSVAYKNAVGSRRSSWRIISSVEQKEHSRNAEDASKMCGKYRSKVEAELTDICNDILTMLDKHLIPTATSPDSKVFYFKMKGDYHRYISEFSTGDSKQSSAEDALKAYKDATVVAKDLEPTHPIRLGLALNFSVFHYEILNEPRAAIDMAKEAFEMAIEQLDKLSEDCYKDSTLIMQLLRDNLTLWTAD | soluble
MTTLNELKHGLEEAWESLAEGWHRLRERAAGALTRFKPGASVPAVPRRQEDFYLASPTWALLAGDVYEDDRKVVIRLEVPGMEKEDFNLELRGDLLIVQGEKRLERETSEGRYRVLQCAYGHFHRVIPLPAEVVADRVQASYRNGVLKIELPKAAARLPRNIEIPVRLEHHHHHH | not soluble
MGSSHHHHHHSSGRENLYFQGHMEKDRKRILITGGAGFVGSHLTDKLMMDGHEVTVVDNFFTGRKRNVEHWIGHENFELINHDVVEPLYIEVDQIYHLASPASPPNYMYNPIKTLKTNTIGTLNMLGLAKRVGARLLLASTSEVYGDPEVHPQSEDYWGHVNPIGPRACYDEGKRVAETMCYAYMKQEGVEVRVARIFNTFGPRMHMNDGRVVSNFILQALQGEPLTVYGSGSQTRAFQYVSDLVNGLVALMNSNVSSPVNLGNPEEHTILEFAQLIKNLVGSGSEIQFLSEAQDDPQKRKPDIKKAKLMLGWEPVVPLEEGLNKAIHYFRKELEYQANNQGS | soluble
MVFKIKDEWGEFLVRLARRAIEEYLKTGKEIEPPKDTPPELWEKMGVFVTLNRYNVPPQTALRGCIGFPTPIYPLVEATIKAAIYSAVDDPRFPPVKLEEMDNLVVEVSVLTPPELIEGPPEERPRKIKVGRDGLIVEKGIYSGLLLPQVPVEWGWDEEEFLAETCWKAGLPPDCWLDEDTKVYKFTAEIFEEEYPRGPIKRKPLVLEHHHHHH | soluble
MEITPKRYWRRWRGYEKLDGSSETTSGRRKGKRVKMDPTRKKRFWRIKIVPKLRILKTASPKKFLVWLRDSYVKMMMRLANSRVVGSSGYGGSGFGSGQMKEYDEKMLVEIYKSILMVQAQGNLVHRDTPNNNLKLPSEPAVVSVVSSVVTC | not soluble
MKGRIELGDVTPHNIKQLKRLNQVIFPVSYNDKFYKDVLEVGELAKLAYFNDIAVGAVCCRVDHSQNQKRLYIMTLGCLAPYRRLGIGTKMLNHVLNICGWMDGWMDGWMDGRASEIVEIPCLFLGYQFPKQSKSKLRSLVLSTFTLMDKLQRALAKRRGHK | not soluble
MSFSGVKVSPECLEAFQELKLGKSLRYVVFKMNDTKTEIVVEKKSTDKDFDTFLGDLPEKDCRYAIYDFEFNLGEGVRNKIIFISWSPDVAPIKSKMVYSSSKDTLRRAFTGIGTDIQATDFSEVAYETVLEKVTRK | soluble
MGSDKIHHHHHHMAMVVLGAGGGLGRAITLELSKQYPDERIFALSRQPEVPETDSSDVTYCRIEDYDEKALGAWVSEFKNNGEQLSGVVSTIGMLHDEETFPEKKLTDITADNLNKLFSVNAVKPMLALKAFLPILDRKKTRFWVQLSAKVGSIEDNYLGGWYAYRSSKAGLNMLLKTASIELKRTHKNLIVAAIHPGTTDTRLSEPFQERISTDKLYSPELSAERIVAVVKNLKPENTGALWHWDGSRLPY | not soluble
MNQLLINKHEKFFNRCLIGLPSTAQSEDSNKLAIIYFCLHGLQLIQKFQFTNQELIYYRNFIINQFMIENNQIISFRSTHYFQKTNQKYDCPNLSSTLFALYNLLILKSPYHTIINRKKIMNFLCKCQVKDGINKGGFVPTLYYNEENGDYKQYGEPDLRVCYMALLIRHLMKYDDNNNNNNREDSNETDIDLISLQQFILDRININGGFSSTIMDESHLGFTFCAIASLKLLNYPLEKLKSTKEWLIHRQVDYPENLYPKDGNGDGNGNGDNYEYYRNIDIGGFNGRENKLSDTCYSWWCTGSLYNIDVNFIKLVDLNKAEDYLLNKTQNQLFGGFGRDPDSTPDPMHSYLALASLSLWNHEKFALQEINPILTITKESYQFFKEEIKY | soluble
MGSDKIHHHHHHMHIDIDWQNVDTVLLDMDGTLLDLAFDNYFWQKLVPETYGAQQGISPQDAQEYIRQQYHAVQHTLNWYCLDYWSERLGLDICAMTTAQGPRAVLRDDTVPFLNALKASGKRRILLTNAHPHNLAVKLEHTGLASHLDLLLSTHTFGYPKEDQRLWRAVTEETGISAEKTLFIDDSEPILDAAARFGIRYCLGVTNPDSGLAEKHYTRHPSLNDYRRLIPSLM | not soluble
MSLNASAPIPLNETQRLLRIRELCVLENTSDDVFDEIVAMTADFFQTPIALISIVDEHRQWFRARVGLNAQETPRNVSFCAYTILSDSLFEIPDATLDDRFMNNSLVTGHPDIRYYAGAPLITDDGIALGSLCVIDTKPREPMSEHQMQMLKRFASLVMKRIVSLRLSCFIDQPTGLYNRSRLQEDIHQALLSSVDYQLVVVDMITSAFLNDIVKALGYSFSQDLVTEIKSRLEHLLPPTCSLYKVSPTRFGFLLPGERAPDHLFRTILEDFETPVECRGIPVQMQVGLGVVTLNRDPTEEQDWMRMVISAADDARDRNLGWAMYEPHFDAAQQRAFKLLSSLTSAVHSHDQLRLVYQPRIDLASGLCTSVEALLRWNHPTLGPIGPAEFVPLAEKTALMRPLSLWVLTSAIEQAARWQQQGFDFRIAINVTPEDLTGPAFTDRMIRLLGQHKIDPTRFELEFTEGALMHNPAEVRHQLERMRQMGMDVAIDDFGTGYSNWNYLRQLPATTVKLDQSLIRNLASDKTDQRLVKALIGLAKKLGYCVVAEGIETDEIRRLVKQWGCDEGQGYLISKPMEADAVLNWLGPDRRLQTVTEAAEAAVIRDKRLEGHHHHHH | soluble
NLEGKGCSVLDQAGLAQKFGPVVSHIRIAARQEDLFAVRIAAGEAHLLLGCDLLVAAGPDAIAKLDSKISHAVINSQQTPTAEFTRNPDAVFPAEAMKQTIIDAVGADKTHFVEATSLATRLMGDSIASNLFMLGYAFQLGLIPLTSAAIEKAIELNGVAVNLNQQAFLWGRRTAHDPAAVEAFVNPQP | not soluble
MEVIREQEFVNQYHYDARNLEWEEENGTPKTNFEVTFQLANRDEAAKVTSIVAVLQFVIVRDEFVISGVISQMAHIQGRLINEPSEFSQDEVENLAAPLLEIVKRLTYEVTEIALDRPGVTLEFNS | soluble
MGSDKIHHHHHHMNRSTRSHKAIVIFSGGQDSTTCLFQAIQEFKRENVEVITFQYGQRHSIELEKAAWIAQNLGIKQTVIDTSVIKAITTNALITEATIKQDGDKPNTFVDGRNALFLLYTAIYAKGQGIQTIFTGVCETDFSGYPDCRDIFIKSMNVTLNLAMDYNFNIRTPLMYLTKKQTWALADQLGAFEYVREHTHTCYLGVEGGCHTCPSCLLREKGLNEYLAEKSGEKNV | not soluble
MGGDMLPSVLKDNLRLPVIASPLFIISHPQLTLAQCKAGVIGAFPALNARPESQLDEWLAMITEELAAYNRANPERPAAPFAVNQIVHMSNRRLEHDLGLCVKYKVPVVISSLGAVPEVNAAVHSYGGIVLHDVINDRHARSAIRKGADGLIAVAAGAGGHAGTLSPFALIQEIREWFDGPLLLAGAIANGGSILAAQAMGADMAYIGSPFIATEEARASDGYKQALVDAQAKDIVYSNYFTGVHGNYLKSSIVASGMDPDNLPEADPSKMDFETATGGAKAWKDIWGAGQGIGAIKAVEPVAALVDRLAAEYEAAKGRICAKA | not soluble
MRIFERYNPSKVAKYVKTLFRGRLYIKGVGAFEFDYGKILLPKKQDKQHLLVMSEVNRQVIRLQAEMGLEHHHHHH | not soluble
MSLAYFGIYDGHGGAEASLYAKEHLMNTIVSQKLFWSENDDDVLKSIREGYIQTHYSMWREQEKWPKTSSGLPSTAGTTASIAFIRRGKIYIGHVGDSGIVLGYQNDKESANDGRWVATPLTEDHKPESYAEKMRIMSCGGKVVTKSGVPRVVWNRPRIGHKGPVRRSTPIDEIPFLAVARSLGDLWSYNSAMDEFVVSPVPDVSVIEIDPKKYRCLIFGSDGLWNVMSPKNAVDIVRNAEMENVRIALEGGNEWKNPSKLLVNEALDRWSRSNMKADNTSVVIIMLDPEGHHHHHH | not soluble
